Reference: patent US20210269545A1 (published 2021)

The binders below were run against T1, CD38 (human, UniProt P28907 43-300, limits assumed) (assay: BLI (Octet Red), antibody on anti-hIgG Fc (AHC) sensor, 1:1 model).
T1 construct: Soluble antigen of the bio-layer interferometry experiments; also called Cluster of Differentiation 38; CD38 antigen (Octet)

| Binder | Kd [nM] |
| --- | --- |
| BS1M-4 (bispecific antibody, Variant of BS1 in the CDR-H2 of the anti-CD38 arm; not shown: heavy chain constant region of the BS1 format) heavy 1: QVQLVQSGAEVKKPGSSVKVSCKASGGTFSSYAFSWVRQAPGQGLEWMGRVIPHLGTANSAQKFQGRVTITADKSTSTAYMELSSLRSEDTAVYYCARDDIAALGPFDYWGQGTLVTVSS heavy 2: not shown light: not shown | 94.4 |
| BS1M-7 (bispecific antibody, Variant of BS1 in the CDR-H2 of the anti-CD38 arm; not shown: heavy chain constant region of the BS1 format) heavy 1: QVQLVQSGAEVKKPGSSVKVSCKASGGTFSSYAFSWVRQAPGQGLEWMGRVIPQLGTANSAQKFQGRVTITADKSTSTAYMELSSLRSEDTAVYYCARDDIAALGPFDYWGQGTLVTVSS heavy 2: not shown light: not shown | 60.5 |

The binders below were run against T1, CD38 (assay: BLI (Octet Red), antibody on anti-hIgG Fc (AHC) sensor).
Procedure: Binding experiments were performed on Octet Red at 25° C. The antibodies were loaded onto anti-hIgG Fc Capture (AHC) biosensors for 300 seconds. The ligand-loaded sensors were dipped into a two-fold series dilution (starting at 300 nM) of the antigens (CD19 and CD38) for 240 seconds of CD19 and 150 seconds of CD38 for association followed by dissociation for 600 seconds of CD19 and 130 seconds of CD38. Kinetic constants were calculated using a monovalent (1:1) binding model.

| Binder | binding result |
| --- | --- |
| BS1M-9 (bispecific antibody, Variant of BS1; not shown: heavy chain constant region of the BS1 format) heavy 1: QVQLVQSGAEVKKPGSSVKVSCKASGGTFSSYAFSWVRQAPGQGLEWMGRVIPQQGTANSAQKFQGRVTITADKSTSTAYMELSSLRSEDTAVYYCARDDIAALGPFDYWGQGTLVTVSS heavy 2: not shown light: not shown | no binding |
| BS1M-5 (bispecific antibody, Variant of BS1; not shown: heavy chain constant region of the BS1 format) heavy 1: QVQLVQSGAEVKKPGSSVKVSCKASGGTFSSYAFSWVRQAPGQGLEWMGRVTPHLGTANSAQKFQGRVTITADKSTSTAYMELSSLRSEDTAVYYCARDDIAALGPFDYWGQGTLVTVSS heavy 2: not shown light: not shown | no binding |
| BS1M-8 (bispecific antibody, Variant of BS1; not shown: heavy chain constant region of the BS1 format) heavy 1: QVQLVQSGAEVKKPGSSVKVSCKASGGTFSSYAFSWVRQAPGQGLEWMGRVIPHQGTANSAQKFQGRVTITADKSTSTAYMELSSLRSEDTAVYYCARDDIAALGPFDYWGQGTLVTVSS heavy 2: not shown light: not shown | no binding |
| BS1M-2 (bispecific antibody, Variant of BS1; not shown: heavy chain constant region of the BS1 format) heavy 1: QVQLVQSGAEVKKPGSSVKVSCKASGGTFSSYAFSWVRQAPGQGLEWMGRVTPFLGTANSAQKFQGRVTITADKSTSTAYMELSSLRSEDTAVYYCARDDIAALGPFDYWGQGTLVTVSS heavy 2: not shown light: not shown | no binding |
